The record followed here is PMC13596708.

What all share (experiment): AlphaScreen or HTRF
Assay [1] concerns the target HIS-tagged BRD4 short isoform (BRD4-S), wild type (human) (UniProt O60885).
Assay [2] has the same target. This is another data set of the same source.
In assay [3] the target is unmodified nucleosome (human | Xenopus laevis) (UniProt P04908).
Assay [4] has as its target H4 K12acK16ac nucleosome (human | Xenopus laevis) (UniProt P04908).
Assay [5] addresses unmodified nucleosome (human | Xenopus laevis) (UniProt P04908). This is another data set of the same source.
Assay [6] has as its target H4 K12acK16ac nucleosome (human | Xenopus laevis) (UniProt P04908). This is another data set of the same source.
Assay [7] has the same target. This is another data set of the same source.
For assay [8] the target is unchanged. This is another data set of the same source.
The target of assay [9] is unmodified nucleosome (human | Xenopus laevis) (UniProt P04908). The source holds these as a separate data set.
The target is the same in assay [10]. This is another data set of the same source.
For assay [11], the target named is H4 K12acK16ac nucleosome (human | Xenopus laevis) (UniProt P04908). This is another data set of the same source.
The target of assay [12] is unmodified nucleosome (human | Xenopus laevis) (UniProt P04908). This is another data set of the same source.
Assay [13] deals with H4 K12acK16ac nucleosome (human | Xenopus laevis) (UniProt P04908). The source holds these as a separate data set.

Where two headings read alike, the source gives them in different places.

For “12x nucleosome array, H4 K12acK16ac histones (from UniProt P04908 1-130; P06899 1-126; P62799 1-103) (complex)”, the concentration for half-maximal inhibition (IC50) in assay [1] stood at 2.4 nM; in [2], 1 nM. Moreover, in [2], the IC50 after accounting for the 12 nucleosomes per array worked out at 12 nM.

Take “12x nucleosome array, unmodified histones (from UniProt P04908 1-130; P06899 1-126) (complex)”: the 50% inhibitory concentration (IC50) in assay [1] was 1.3 nM. In assay [2], this substance returned an IC50 of 3.3 nM and an IC50 after accounting for the 12 nucleosomes per array of 40 nM.

For the substance “HIS-tagged BRD4 short isoform (BRD4-S), wild type (from UniProt O60885-2 2-722) (natural protein)”, the dissociation constant (Kd) came to 37 nM in assay [3]; 42 nM in assay [4]; 71 nM in [5]; 18 nM in [6]; 37 nM in [7]; 12.2 nM in [8]. Moreover, the Kd was 43 nM in assay [9]; 6.6 nM in assay [10]; 8 nM in [11]; 100 nM in assay [12]; 26 nM in assay [13].
